Results published in US12559749B2, “Methods of rescuing stop codons via genetic reassignment with ACE-tRNA” (UNIVERSITY OF IOWA RESEARCH FOUNDATION, priority 2017, dated 2026).

System: CFTR G542X
Experiment: Two-electrode voltage clamp of CFTR Cl- current in Xenopus oocytes, G542X
Format: cell-based
Experimental: FIGS. 20A-20D. Delivery of ACE-tRNA as small RNA supports robust suppression of G542X and W1282X nonsense mutations. FIG. 20A) CFTR cRNA with G542X or W1282X cystic fibrosis causing nonsense mutations was co-injected in Xenopus oocytes with serial dilutions of pre-folded ACE-tRNAGly and ACE-tRNATrp, respectively. Two-electrode voltage-clamp recordings of CFTR Cl— current were performed after 36 hrs. Current-voltage relationships illustrate that increasing amounts of FIG. 20B) ACE-tRNATrp and FIG. 20C) ACE-tRNAGly pre-folded RNA results in increased CFTR function (measured CFTR Cl— currents) with WT CFTR achieved in ACE-tRNAGly experiments. FIG. 20D) Dose response of G542X ACE-tRNAGly (filled circles) and W1282X ACE-tRNATrp (open squares) rescue (CFTR Cl— currents elicited at +40 mV were normalized to WT CFTR Cl— currents at +40 mV).
In vitro cRNA transcription. G5-42XUGA, W1282XUGA, and WT CFTR pGEMHE (Mense et al., 2006; PMID:1703051) plasmids were linearized by 10× excess of NheI-HF restriction enzyme (site positioned 3′ of coding region)(New England BioLabs, USA) for 3 hrs at 37° C. and purified using standard cDNA precipitation methods. All cRNAs were transcribed using the mMessage mMachine T7 Kit (ThermoFisher Scientific, USA). Purification of the cRNA from the transcription reaction was conducted on columns from the RNeasy Mini Kit (Qiagen, Germany). Concentration was determined by absorbance measurements at 260 nm and quality was confirmed on a 1% agarose gel (RNase-free). All cRNA was queued to 1 μg/ml before use and all results were generated from ≥2:2 cRNA preparations.
Expression in Xenopus laevis oocytes. Xenopus laevis oocytes (stage V and VI) were purchased from Ecocyte (Austin, TX). […]
Two-electrode voltage clamp ([…]) recordings. CFTR Cl^− currents were recorded in ND96 bath solution that contained (in mM): 96 NaCl, 2 KCl, 1 MgCl2, and 5 HEPES (pH 7.5) in the presence of a maximal CFTR activation cocktail, forskolin (10 μM; adenylate cyclase activator) and 3-isobutyl-1-methylxanthine (1 mM; phosphodiesterase inhibitor). […]

B1: Glychr19.trna2: top performing glycine ACE-tRNA UGA, SEQ ID NO: 53 (nucleic acid)
chain: GCGUUGGUGGUAUAGUGGUUAGCAUAGCUGCCUUCAAAGCAGUUGACCCGGGUUCGAUUCCCGGCCAACGCA
modifications: chemistry not given here
- Hill coefficient (dose response of G542X rescue): ~1.4
- level of CFTR function reached (normalized to WT CFTR Cl- currents): clear saturation at WT CFTR levels
- EC50 of CFTR Cl- current rescue (pre-folded ACE-tRNA RNA per oocyte, 36 hrs, currents at +40 mV normalized to WT CFTR): ~20 ng
